In article PMC8189437 (Molecular Cell, 2021):

B1: Gid8 with a C-terminal twin-Strep tag (natural protein)
chain: MTISTLSNETTKSGSCSGQGKNGGKDFTYGKKCFTKEEWKEQVAKYSAMGELYANKTIHYPLKIQPNSSGGSQDEGFATIQTTPIEPTLPRLLLNYFVSMAYEDSSIRMAKELGFIRNNKDIAVFNDLYKIKERFHIKHLIKLGRINEAMEEINSIFGLEVLEETFNATGSYTGRTDRQQQQQQQQFDIDGDLHFKLLLLNLIEMIRSHHQQENITKDSNDFILNLIQYSQNKLAIKASSSVKKMQELELAMTLLLFPLSDSADSGSIKLPKSLQNLYSISLRSKIADLVNEKLLKFIHPRIQFEISNNNSKFPDLLNSDKKIITQNFTVYNNNLVNGSNGTKITHISSDQPINEKMSSNEVTAAANSVWLNQRDGNVGTGSAATTFHNLENKNYWNQTSELLSSSNGKEKGLEFNNYYSSEFPYEPRLTQIMKLWCWCENQLHHNQIGVPRVEN
B2: Gid7 (natural protein)
chain: MSHTNKIAYVLNNDTEETASPSSVGCFDKKQLTKLLIHTLKELGYDSAANQLLLESGGYQNESNHIQTFFKLIKTGQFHLINWQIVCSLPLAHSSPLRSEWLQRLLIPTPTPATTSLFDHMLLQLQYLQQLMSSVNSSTCSDAEIATLRNYVEIMILVNRQIFLEFFHPVTNSASHKGPHTALPVLYLRKILKNFIEIWDSLLVSNDQFLNEENIFNPETTLRELSTYLTNPKLTAQLNLERDHLIDAISKYIDPNELVPKGRLLHLLKQAIKYQQSQDIFNIIDPDDDASFSSPPHRINLLQDNFSHDLTVTFQEWKTIQDTTDEIWFLTFSPNGKYLASATSESSRGYFITVYDVEQDFKIYKTCVSLSQSVLYLMFSPDSRYLVACPFSEDVTIYDMNATSLPDASATDSFLLYPSTRLSPMDSFKLDTTTYPDDTESSASSSSRPANANSNQSRVWCCDAFHTAERAGWMVVGSPDREAIVHSLTTKESLFSLKGRTCIALGHDENISGRKSIDPAKVLYKPTSSNGNWQYVEDDETFPRVHDVKISYDDKYVLLMTHQGVIDVYDFSGFPSKEELSKQTVDPKNFLIPRIARLDVGKNMTCISLPLNTTHQGFHRQQISESQHLVLVSLQDNELQMWDYKENILIQKYFGQKQQHFIIRSCFAYGNKLVMSGSEDGKIYIWDRIRGNLVSVLSGHSTVMSNSTKPMGKNCNVVASNPADKEMFASGGDDGKIKIWKISRN

Assays:
Experiment in all cases: cryo-EM structure
[1] = molecular target: B2
[2] = molecular target: T1, Gid1 (S. cerevisiae, UniProt P53076)
T1 sequence: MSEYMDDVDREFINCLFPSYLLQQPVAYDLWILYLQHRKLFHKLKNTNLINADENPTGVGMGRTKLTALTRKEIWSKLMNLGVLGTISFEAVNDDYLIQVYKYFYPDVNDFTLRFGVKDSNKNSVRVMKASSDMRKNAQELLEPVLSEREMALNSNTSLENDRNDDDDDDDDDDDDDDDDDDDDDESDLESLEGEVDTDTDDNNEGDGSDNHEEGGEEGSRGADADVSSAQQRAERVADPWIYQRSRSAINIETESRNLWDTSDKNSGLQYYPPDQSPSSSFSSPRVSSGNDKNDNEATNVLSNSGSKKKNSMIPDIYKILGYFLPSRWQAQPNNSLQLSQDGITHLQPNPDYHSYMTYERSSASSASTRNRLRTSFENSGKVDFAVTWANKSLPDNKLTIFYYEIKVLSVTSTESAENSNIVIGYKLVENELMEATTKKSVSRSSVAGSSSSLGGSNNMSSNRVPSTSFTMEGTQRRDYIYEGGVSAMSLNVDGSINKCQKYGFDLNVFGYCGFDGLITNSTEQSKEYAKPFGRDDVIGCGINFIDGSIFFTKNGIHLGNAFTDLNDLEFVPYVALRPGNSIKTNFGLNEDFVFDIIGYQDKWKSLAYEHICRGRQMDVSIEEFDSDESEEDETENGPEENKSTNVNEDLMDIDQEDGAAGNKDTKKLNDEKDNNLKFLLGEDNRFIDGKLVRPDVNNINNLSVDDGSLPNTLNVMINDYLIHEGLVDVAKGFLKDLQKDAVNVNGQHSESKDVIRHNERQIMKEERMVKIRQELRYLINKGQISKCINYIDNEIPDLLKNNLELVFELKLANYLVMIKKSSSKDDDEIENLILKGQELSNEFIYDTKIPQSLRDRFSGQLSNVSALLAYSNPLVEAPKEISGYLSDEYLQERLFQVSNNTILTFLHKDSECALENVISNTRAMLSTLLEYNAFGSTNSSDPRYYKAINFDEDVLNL

[3] = molecular target: GID^SR4 (S. cerevisiae, UniProt P53076;P40208;P40547;P38263;Q12508;P40492)
Sequence of GID^SR4 (P40547 whole entry, chain 3 of 4): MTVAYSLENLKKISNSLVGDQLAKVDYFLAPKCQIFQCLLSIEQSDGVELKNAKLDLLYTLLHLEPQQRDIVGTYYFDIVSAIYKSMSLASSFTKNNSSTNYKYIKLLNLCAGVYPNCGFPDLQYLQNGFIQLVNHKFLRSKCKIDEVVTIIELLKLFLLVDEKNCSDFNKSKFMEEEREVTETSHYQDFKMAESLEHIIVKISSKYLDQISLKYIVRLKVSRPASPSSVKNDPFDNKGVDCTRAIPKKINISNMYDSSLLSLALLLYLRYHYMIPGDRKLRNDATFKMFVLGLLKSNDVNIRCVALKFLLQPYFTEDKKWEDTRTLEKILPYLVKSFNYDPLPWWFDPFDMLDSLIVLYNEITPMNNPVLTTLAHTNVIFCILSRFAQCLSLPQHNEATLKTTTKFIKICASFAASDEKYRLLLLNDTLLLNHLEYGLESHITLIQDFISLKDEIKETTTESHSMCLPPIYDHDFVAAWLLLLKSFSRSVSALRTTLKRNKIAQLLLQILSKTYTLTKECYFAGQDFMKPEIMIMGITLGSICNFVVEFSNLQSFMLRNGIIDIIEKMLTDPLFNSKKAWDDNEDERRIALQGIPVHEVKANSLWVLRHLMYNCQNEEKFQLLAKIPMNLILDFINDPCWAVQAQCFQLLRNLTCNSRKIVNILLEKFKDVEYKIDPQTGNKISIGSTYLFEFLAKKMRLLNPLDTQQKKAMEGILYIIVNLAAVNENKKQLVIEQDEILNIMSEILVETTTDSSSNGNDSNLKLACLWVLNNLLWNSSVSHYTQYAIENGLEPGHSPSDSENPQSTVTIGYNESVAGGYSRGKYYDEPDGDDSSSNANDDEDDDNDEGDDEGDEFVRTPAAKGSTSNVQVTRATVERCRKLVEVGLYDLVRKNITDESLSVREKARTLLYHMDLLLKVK
Sequence of GID^SR4 (P38263 117-362, chain 4 of 4): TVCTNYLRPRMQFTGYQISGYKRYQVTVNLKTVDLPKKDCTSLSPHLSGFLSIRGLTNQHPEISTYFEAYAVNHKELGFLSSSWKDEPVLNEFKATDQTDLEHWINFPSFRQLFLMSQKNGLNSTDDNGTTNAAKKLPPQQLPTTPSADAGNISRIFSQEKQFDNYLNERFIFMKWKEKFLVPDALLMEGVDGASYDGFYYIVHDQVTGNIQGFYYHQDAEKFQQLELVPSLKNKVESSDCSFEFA
Sequence of GID^SR4 (Q12508 whole entry, chain 5 of 4): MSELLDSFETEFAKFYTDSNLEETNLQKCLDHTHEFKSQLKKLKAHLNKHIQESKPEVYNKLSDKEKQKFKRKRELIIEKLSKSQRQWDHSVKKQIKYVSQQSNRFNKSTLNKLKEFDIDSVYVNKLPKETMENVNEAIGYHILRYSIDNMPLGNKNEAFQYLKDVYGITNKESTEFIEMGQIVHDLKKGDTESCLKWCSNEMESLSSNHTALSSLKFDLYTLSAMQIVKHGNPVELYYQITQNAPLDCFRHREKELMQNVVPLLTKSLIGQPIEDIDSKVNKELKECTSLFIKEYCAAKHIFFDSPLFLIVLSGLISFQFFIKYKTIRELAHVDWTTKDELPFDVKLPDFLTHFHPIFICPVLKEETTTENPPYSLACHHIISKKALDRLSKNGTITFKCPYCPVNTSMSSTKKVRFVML
Sequence of GID^SR4 (P40492 whole entry, chain 6 of 4): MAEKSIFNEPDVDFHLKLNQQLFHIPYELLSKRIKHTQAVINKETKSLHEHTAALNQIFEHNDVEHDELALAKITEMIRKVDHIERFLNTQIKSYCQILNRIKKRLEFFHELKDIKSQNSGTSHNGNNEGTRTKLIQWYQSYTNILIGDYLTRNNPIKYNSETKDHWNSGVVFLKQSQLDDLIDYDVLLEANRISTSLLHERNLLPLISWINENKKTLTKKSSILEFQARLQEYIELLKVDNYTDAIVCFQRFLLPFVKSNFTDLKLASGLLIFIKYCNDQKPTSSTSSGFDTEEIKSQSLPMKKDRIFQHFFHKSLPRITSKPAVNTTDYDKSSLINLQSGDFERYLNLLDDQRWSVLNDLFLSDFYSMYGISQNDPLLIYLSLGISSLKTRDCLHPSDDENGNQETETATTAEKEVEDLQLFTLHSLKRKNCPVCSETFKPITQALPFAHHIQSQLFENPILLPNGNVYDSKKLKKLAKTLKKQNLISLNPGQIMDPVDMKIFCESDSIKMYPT

[4] = molecular target: Gid7 (S. cerevisiae) (UniProt P25569)

Binder	binding result [1]	binding result [2]	binding result [3]	stoichiometry N [4]
B1	binds			
B2		binds	binds	2
